Source: US20250109209A1 (ABSCI, published 2025)
Where a chain is given by its changes, count along the chain named.

T1: human TL1A (human, UniProt O95150 72-251)
T1 construct: Antigen in SPR and ELISA; Also used here for places that print only 'TL1A' and for endogenous TL1A in human whole blood; also called TNFSF15
T1 sequence (looked up): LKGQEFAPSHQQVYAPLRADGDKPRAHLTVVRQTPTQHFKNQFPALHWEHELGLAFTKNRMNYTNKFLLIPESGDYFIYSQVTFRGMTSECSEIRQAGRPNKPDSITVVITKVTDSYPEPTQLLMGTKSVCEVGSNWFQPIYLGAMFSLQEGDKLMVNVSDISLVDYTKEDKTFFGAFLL

T2: Cyno TL1A (cyno, UniProt G7PRK8 72-251)
T2 sequence: T1 sequence (looked up) with F39L, I78V

T3: mouse TL1A (mouse, UniProt Q5UBV8 76-252, limits assumed)
T3 sequence (looked up): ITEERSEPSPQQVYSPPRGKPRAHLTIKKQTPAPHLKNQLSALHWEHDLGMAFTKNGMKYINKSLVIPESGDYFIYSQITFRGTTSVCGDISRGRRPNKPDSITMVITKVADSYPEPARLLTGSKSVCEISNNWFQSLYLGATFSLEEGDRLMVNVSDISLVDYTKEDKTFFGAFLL

B1: Antibody 9 (Fab format) (Fab, V domains shown)
VH: QVQLQESGPGLVRPSQTLSLTCTVSGFDIQDTYMHWVRQRPGRGLEWMGRIEPAGGHTKYNPSLKSRVTITRDTSKNQVSLRLSSVTAADTAVYYCVRSGGLPDAWGQGSLVTVSS
VL: DIQMTQSPSSLSASVGDRVTITCRASQGVGYMYWYQQKPGKAPKLLIYSASNLASGVPSRFSGSGSGTDFTFTISSLQPEDIATYYCQQWEGNPRTFGQGTKVEIK
notes: High priority lead, Fab format
B2: Antibody 15 (Fab format) (Fab, V domains shown)
VH: B1 VH
VL: B1 VL with V29I, G30Y, S49G
notes: as for B1
B3: Antibody 10 (Fab format) (Fab, V domains shown)
VH: B1 VH with F27L, I29P, Q30D, R98I, A105V
VL: B1 VL with G30E, S49G
notes: as for B1
B4: Antibody 17 (Fab format) (Fab, V domains shown)
VH: B1 VH with I29M, Q30G, G55A, A105V
VL: B1 VL with G30E, S49G
notes: as for B1
B5: Antibody 16 (Fab format) (Fab, V domains shown)
VH: B1 VH with I29M, D31S, A105V
VL: B1 VL with G30E, S49G
notes: as for B1
B6: Antibody 11 (Fab format) (Fab, V domains shown)
VH: B1 VH with I29M, Q30G, L102M, A105V
VL: B1 VL with G30E
notes: as for B1
B7: Antibody 12 (Fab format) (Fab, V domains shown)
VH: B1 VH with Q30T, A105V
VL: B1 VL with G30E
notes: as for B1
B8: Antibody 19 (Fab format) (Fab, V domains shown)
VH: B1 VH with Q30T, A105V
VL: B1 VL with G30E, S49Y
notes: as for B1
B9: Antibody 20 (Fab format) (Fab, V domains shown)
VH: B1 VH with G55S, V97A, L102M, A105M
VL: B1 VL with G30M, S49G
notes: as for B1
B10: Antibody 14 (Fab format) (Fab, V domains shown)
VH: B1 VH with F27L, I29P, Q30D, R98I, A105V
VL: B1 VL with V29I, G30Y, S49G
notes: as for B1
B11: Antibody 18 (Fab format) (Fab, V domains shown)
VH: B1 VH with I29M, Q30G, L102M, A105V
VL: B1 VL with Q27S, G28S, G30S, S49Y
notes: as for B1
B12: Antibody 13 (Fab format) (Fab, V domains shown)
VH: B1 VH with I29Y, E52D, G55S, V97A, R98V, L102M, A105V
VL: B1 VL with G30E, S49A, A50T
notes: as for B1
B13: Antibody 16 (mAb format) (antibody, human IgG1, kappa, N297A)
heavy: QVQLQESGPGLVRPSQTLSLTCTVSGFDMQSTYMHWVRQRPGRGLEWMGRIEPAGGHTKYNPSLKSRVTITRDTSKNQVSLRLSSVTAADTAVYYCVRSGGLPDVWGQGSLVTVSSASTKGPSVFPLAPSSKSTSGGTAALGCLVKDYFPEPVTVSWNSGALTSGVHTFPAVLQSSGLYSLSSVVTVPSSSLGTQTYICNVNHKPSNTKVDKKVEPKSCDKTHTCPPCPAPELLGGPSVFLFPPKPKDTLMISRTPEVTCVVVDVSHEDPEVKFNWYVDGVEVHNAKTKPREEQYASTYRVVSVLTVLHQDWLNGKEYKCKVSNKALPAPIEKTISKAKGQPREPQVYTLPPSRDELTKNQVSLTCLVKGFYPSDIAVEWESNGQPENNYKTTPPVLDSDGSFFLYSKLTVDKSRWQQGNVFSCSVLHEALHSHYTQKSLSLSPGK
light: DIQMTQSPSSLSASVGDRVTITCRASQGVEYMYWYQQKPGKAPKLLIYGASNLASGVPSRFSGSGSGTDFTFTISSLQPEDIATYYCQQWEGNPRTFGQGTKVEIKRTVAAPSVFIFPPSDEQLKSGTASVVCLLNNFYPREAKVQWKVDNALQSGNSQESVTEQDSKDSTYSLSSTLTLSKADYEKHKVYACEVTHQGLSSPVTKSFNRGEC
notes: also called high priority lead mAb
B14: Antibody 6 (mAb format) (antibody, human IgG1, kappa, N297A)
heavy: B13 heavy with Q30A, S31D, V105M
light: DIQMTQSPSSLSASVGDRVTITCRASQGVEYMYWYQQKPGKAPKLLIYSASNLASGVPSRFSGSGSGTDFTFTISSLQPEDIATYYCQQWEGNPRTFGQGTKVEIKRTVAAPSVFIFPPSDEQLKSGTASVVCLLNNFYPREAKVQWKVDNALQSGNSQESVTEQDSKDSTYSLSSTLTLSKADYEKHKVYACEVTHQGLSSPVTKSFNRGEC
notes: as for B13
B15: Antibody 7 (mAb format) (antibody, human IgG1, kappa, N297A)
heavy: B13 heavy with Q30G, S31D, G55A, V105I
light: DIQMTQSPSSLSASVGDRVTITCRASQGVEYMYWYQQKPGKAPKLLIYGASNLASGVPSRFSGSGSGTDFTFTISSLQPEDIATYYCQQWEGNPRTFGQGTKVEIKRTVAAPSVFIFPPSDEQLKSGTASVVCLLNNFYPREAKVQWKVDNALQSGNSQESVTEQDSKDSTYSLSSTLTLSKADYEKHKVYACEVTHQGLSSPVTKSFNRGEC
notes: as for B13
B16: Antibody 14 (mAb format) (antibody, human IgG1, kappa, N297A)
heavy: B13 heavy with F27L, M29P, Q30D, S31D, R98I
light: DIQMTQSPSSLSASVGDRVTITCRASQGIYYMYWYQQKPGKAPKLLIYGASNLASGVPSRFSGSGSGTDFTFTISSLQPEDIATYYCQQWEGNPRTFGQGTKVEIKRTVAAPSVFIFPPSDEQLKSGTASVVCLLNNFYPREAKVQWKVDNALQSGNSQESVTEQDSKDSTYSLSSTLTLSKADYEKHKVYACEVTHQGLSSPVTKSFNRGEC
notes: as for B13
B17: Antibody 8 (mAb format) (antibody, human IgG1, kappa, N297A)
heavy: B13 heavy
light: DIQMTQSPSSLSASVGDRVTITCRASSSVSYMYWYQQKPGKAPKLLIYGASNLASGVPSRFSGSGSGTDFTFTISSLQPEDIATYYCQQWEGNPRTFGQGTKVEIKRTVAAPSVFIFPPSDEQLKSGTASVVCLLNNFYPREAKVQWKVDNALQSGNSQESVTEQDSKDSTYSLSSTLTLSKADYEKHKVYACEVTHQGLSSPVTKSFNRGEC
notes: as for B13
B18: Antibody 9 (mAb format) (antibody, human IgG1, kappa, N297A)
heavy: B13 heavy with M29I, S31D, V105A
light: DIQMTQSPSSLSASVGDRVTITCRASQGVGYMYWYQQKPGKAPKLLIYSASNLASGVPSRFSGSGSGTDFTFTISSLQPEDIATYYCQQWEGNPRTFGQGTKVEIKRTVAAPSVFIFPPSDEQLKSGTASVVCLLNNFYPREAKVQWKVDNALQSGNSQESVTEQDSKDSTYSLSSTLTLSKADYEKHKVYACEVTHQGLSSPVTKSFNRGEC
notes: as for B13
B19: Antibody 4 (mAb format) (antibody, human IgG1, kappa, N297A)
heavy: B13 heavy with Q30A, S31D, V105M
light: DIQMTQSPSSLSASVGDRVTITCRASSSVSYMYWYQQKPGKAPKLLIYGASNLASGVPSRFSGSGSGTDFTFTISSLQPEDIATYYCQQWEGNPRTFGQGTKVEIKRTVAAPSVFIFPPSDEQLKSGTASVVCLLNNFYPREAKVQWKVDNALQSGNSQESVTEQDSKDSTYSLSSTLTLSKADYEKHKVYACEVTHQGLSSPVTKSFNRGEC
notes: as for B13
B20: Antibody 1 (mAb format) (antibody, human IgG1, kappa, N297A)
heavy: B13 heavy with M29I, S31D, V97A, R98S, L102M, V105L
light: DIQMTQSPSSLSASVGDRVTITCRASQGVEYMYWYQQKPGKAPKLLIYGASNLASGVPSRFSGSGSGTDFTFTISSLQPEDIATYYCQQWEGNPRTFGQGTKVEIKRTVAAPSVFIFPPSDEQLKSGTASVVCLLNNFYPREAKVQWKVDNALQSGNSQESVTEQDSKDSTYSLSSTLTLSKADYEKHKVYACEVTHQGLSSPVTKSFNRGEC
notes: also called Lead #1; high priority lead mAb
B21: Antibody 12 (mAb format) (antibody, human IgG1, kappa, N297A)
heavy: B13 heavy with M29I, Q30T, S31D
light: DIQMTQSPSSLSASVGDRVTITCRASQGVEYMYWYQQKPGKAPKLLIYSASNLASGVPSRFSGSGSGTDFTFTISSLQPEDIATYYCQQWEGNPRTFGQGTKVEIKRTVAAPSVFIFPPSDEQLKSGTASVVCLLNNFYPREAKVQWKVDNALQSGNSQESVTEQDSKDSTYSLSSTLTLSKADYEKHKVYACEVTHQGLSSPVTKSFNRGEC
notes: as for B13
B22: Antibody 11 (mAb format) (antibody, human IgG1, kappa, N297A)
heavy: B13 heavy with Q30G, S31D, L102M
light: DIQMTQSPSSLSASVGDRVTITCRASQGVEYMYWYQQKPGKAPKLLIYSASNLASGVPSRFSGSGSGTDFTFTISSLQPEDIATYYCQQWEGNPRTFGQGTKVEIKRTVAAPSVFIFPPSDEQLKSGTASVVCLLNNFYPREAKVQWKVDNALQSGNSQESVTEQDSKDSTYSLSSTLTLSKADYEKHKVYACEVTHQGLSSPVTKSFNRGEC
notes: as for B13
B23: Antibody 5 (mAb format) (antibody, human IgG1, kappa, N297A)
heavy: B13 heavy with S31D, G55S
light: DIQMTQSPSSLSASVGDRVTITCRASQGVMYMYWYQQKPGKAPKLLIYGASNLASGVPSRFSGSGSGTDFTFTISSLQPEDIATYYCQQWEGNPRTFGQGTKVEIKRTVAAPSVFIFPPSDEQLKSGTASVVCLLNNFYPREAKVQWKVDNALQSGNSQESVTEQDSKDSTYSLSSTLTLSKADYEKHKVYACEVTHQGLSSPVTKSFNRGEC
notes: as for B13

target: T1, human TL1A; assay: SPR, Fab format, average

| Kd [nM] | Binder |
| --- | --- |
| 0.43 | B1 |
| 0.5 | B2 |
| 0.48 | B3 |
| 0.57 | B4 |
| 0.51 | B5 |
| 0.48 | B6 |
| 0.43 | B7 |
| 0.72 | B8 |
| 0.76 | B9 |
| 0.7 | B10 |
| 0.67 | B11 |
| 0.43 | B12 |

target: T2, Cyno TL1A; assay: SPR, Fab format, average

| Kd [nM] | Binder |
| --- | --- |
| 1.99 | B1 |
| 1.81 | B2 |
| 1.83 | B3 |
| 0.33 | B4 |
| 0.32 | B5 |
| 0.38 | B6 |
| 1.29 | B7 |
| 5.14 | B8 |
| 1.28 | B9 |
| 4.25 | B10 |
| 1.28 | B11 |
| 0.34 | B12 |

target: T1, human TL1A; assay: SPR, mAb format, average

| Kd [nM] | Binder |
| --- | --- |
| 0.339 | B13 |
| 0.101 | B14 |
| 0.179 | B15 |
| 0.296 | B16 |
| 0.091 | B17 |
| 0.096 | B18 |
| 0.051 | B19 |
| 0.151 | B20 |
| 0.17 | B21 |
| 0.2 | B22 |
| 0.073 | B23 |

target: T4, FcRn (UniProt P55899 24-297; P61769 21-119); assay: SPR, mAb format, FcRn at pH 6.0, average
T4 construct: also called neonatal receptor

| Kd [nM] | Binder |
| --- | --- |
| 17.7 | B13 |
| 20.9 | B14 |
| 19 | B15 |
| 19.8 | B16 |
| 17.6 | B17 |
| 18.2 | B18 |
| 16.9 | B19 |
| 17.5 | B20 |
| 19.7 | B21 |
| 20.4 | B22 |
| 17.2 | B23 |

target: T1, human TL1A; assay: SPR, mAb format, average; remark: another data set of the same source

| Kd [nM] | Binder |
| --- | --- |
| 0.339 | B13 |
| 0.101 | B14 |
| 0.179 | B15 |
| 0.296 | B16 |
| 0.091 | B17 |
| 0.096 | B18 |
| 0.051 | B19 |
| 0.151 | B20 |
| 0.17 | B21 |
| 0.2 | B22 |
| 0.073 | B23 |

target: T3, mouse TL1A; assay: SPR, mAb format, average

| Kd [nM] | Binder |
| --- | --- |
| 955 | B13 |
| 1720 | B14 |
| 1270 | B15 |
| 3810 | B16 |
| 418 | B17 |
| 739 | B18 |
| 290 | B19 |
| 74500 | B20 |
| 13100 | B21 |
| 842 | B22 |
| 727 | B23 |

target: T1, human TL1A; assay: SPR, mAb format, average; remark: another data set of the same source

| Kd [nM] | Binder |
| --- | --- |
| 0.339 | B13 |
| 0.101 | B14 |
| 0.179 | B15 |
| 0.296 | B16 |
| 0.091 | B17 |
| 0.096 | B18 |
| 0.051 | B19 |
| 0.151 | B20 |
| 0.17 | B21 |
| 0.2 | B22 |
| 0.073 | B23 |

target: T2, Cyno TL1A; assay: SPR, mAb format, average

| Kd [nM] | Binder |
| --- | --- |
| 0.09 | B13 |
| 0.085 | B14 |
| 0.125 | B15 |
| 0.224 | B16 |
| 0.085 | B17 |
| 0.064 | B18 |
| 0.034 | B19 |
| 0.139 | B20 |
| 0.118 | B21 |
| 0.135 | B22 |
| 0.038 | B23 |

target: T1, human TL1A; assay: SPR, Fab lysate, average

| Kd [nM] | Binder |
| --- | --- |
| 0.43 | B1 |
| 0.5 | B2 |
| 0.48 | B3 |
| 0.57 | B4 |
| 0.51 | B5 |
| 0.48 | B6 |
| 0.43 | B7 |
| 0.72 | B8 |
| 0.76 | B9 |
| 0.7 | B10 |
| 0.67 | B11 |
| 0.43 | B12 |

target: T1, human TL1A; assay: SPR, Fab format

| Kd [nM] | Binder |
| --- | --- |
| < 1 | B1 |
| < 1 | B2 |
| < 1 | B3 |
| < 1 | B4 |
| < 1 | B5 |
| < 1 | B6 |
| < 1 | B7 |
| < 1 | B8 |
| < 1 | B9 |
| < 1 | B10 |
| < 1 | B11 |
| < 1 | B12 |
